In experiment [1] the target is T1, CCR4 (human, UniProt P51679 1-360).
T1 sequence (looked up): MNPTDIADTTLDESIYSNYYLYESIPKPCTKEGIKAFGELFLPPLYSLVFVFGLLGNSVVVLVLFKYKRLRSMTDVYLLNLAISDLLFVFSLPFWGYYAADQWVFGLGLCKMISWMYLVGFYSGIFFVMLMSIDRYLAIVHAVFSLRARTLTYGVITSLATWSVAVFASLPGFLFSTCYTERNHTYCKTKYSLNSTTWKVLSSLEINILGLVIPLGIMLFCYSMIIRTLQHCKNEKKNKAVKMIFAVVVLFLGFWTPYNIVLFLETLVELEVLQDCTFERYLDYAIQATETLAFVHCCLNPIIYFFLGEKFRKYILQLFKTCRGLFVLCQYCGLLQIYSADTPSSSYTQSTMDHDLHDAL
Kind of experiment: cell-based or functional assay.

In experiment [2] the target is T2, CCR8 (human, UniProt P51685 1-355).
T2 construct: whole, on cells; also called human CCR8; HEK/CCR8
Description: flow cytometry on HEK293/CCR8 cells, 30 min at 4° C., anti-EDN antibody detection. On the technique in general: Flow cytometry measures light scatter and fluorescence of single cells or particles in a stream.

T2 sequence (P51685 whole entry): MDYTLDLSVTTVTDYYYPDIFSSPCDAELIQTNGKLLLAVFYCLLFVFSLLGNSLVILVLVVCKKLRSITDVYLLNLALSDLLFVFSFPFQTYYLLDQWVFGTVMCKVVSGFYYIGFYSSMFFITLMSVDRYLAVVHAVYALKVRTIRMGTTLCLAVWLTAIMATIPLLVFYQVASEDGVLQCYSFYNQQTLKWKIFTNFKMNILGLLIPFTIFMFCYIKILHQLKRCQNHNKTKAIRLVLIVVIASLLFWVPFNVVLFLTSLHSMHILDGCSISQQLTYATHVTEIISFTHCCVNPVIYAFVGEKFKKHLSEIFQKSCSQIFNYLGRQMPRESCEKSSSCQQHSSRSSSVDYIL

B1: TARC-PE38 (ligand)
chain: MARGTNVGRECCLEYFKGAIPLRKLKTWYQTSEDCSRDAIVFVTVQGRAICSDPNNKRVKNAVKYLQSLERSDGGGSGGGGSLEASGGPEGGSLAALTAHQACHLPLETFTRHRQPRGWEQLEQCGYPVQRLVALYLAARLSWNQVDQVIRNALASPGSGGDLGEAIREQPEQARLALTLAAAESERFVRQGTGNDEAGAANGPADSGDALLERNYPTGAEFLGDGGDVSFSTRGTQNWTVERLLQAHRQLEERGYVFVGYHGTFLEAAQSIVFGGVRARSQDLDAIWRGFYIAGDPALAYGYAQDQEPDARGRIRNGALLRVYVPRSSLPGFYRTSLTLAAPEAAGEVERLIGHPLPLRLDAITGPEEEGGRLETILGWPLAERTVVIPSAIPTDPRNVGGDLDPSSIPDKEQAISALPDYASQPGKPPREDLKRSAEEQKLISEEDLAHHHHHH
Regarding B1, the “killing of human T lymphoblastoid CCRF-CEM cells in vitro (IC50)” value in experiment [1] fell in the range of 3 to 8 nM.

B2: MC148-EDN (ligand)
chain: MALARRKCCLNPTNRPIPNPLLQDLSRVDYQAIGHDCGREAFRVTLQDGRQGCVSVGNKSLLDWLRGHKDLCPQIWSGCESLEFNDAQAPKSLEGGGGSKPPQFTWAQWFETQHINMTSQQCTNAMQVINNYQRRCKNQNTFLLTTFANVVNVCGNPNMTCPSNKTRKNCHHSGSQVPLIHCNLTTPSPQNISNCRYAQTPANMFYIVACDNRDQRRDPPQYPVVPVHLDRIIGSAEEQKLISEEDLAHHHHHH
notes: also called MC148-chemotoxin
Consider B2, for which, in experiment [2], the binding result is “binds”.
